Data published in CN115960228A (UNIV XUZHOU MEDICAL, dated 2023).

Target: T1, CD19 protein on the cell surface (细胞表面的CD19蛋白) (human, UniProt P15391 20-556)
T1 construct: whole, on cells; also called 人CD19
T1 sequence (looked up): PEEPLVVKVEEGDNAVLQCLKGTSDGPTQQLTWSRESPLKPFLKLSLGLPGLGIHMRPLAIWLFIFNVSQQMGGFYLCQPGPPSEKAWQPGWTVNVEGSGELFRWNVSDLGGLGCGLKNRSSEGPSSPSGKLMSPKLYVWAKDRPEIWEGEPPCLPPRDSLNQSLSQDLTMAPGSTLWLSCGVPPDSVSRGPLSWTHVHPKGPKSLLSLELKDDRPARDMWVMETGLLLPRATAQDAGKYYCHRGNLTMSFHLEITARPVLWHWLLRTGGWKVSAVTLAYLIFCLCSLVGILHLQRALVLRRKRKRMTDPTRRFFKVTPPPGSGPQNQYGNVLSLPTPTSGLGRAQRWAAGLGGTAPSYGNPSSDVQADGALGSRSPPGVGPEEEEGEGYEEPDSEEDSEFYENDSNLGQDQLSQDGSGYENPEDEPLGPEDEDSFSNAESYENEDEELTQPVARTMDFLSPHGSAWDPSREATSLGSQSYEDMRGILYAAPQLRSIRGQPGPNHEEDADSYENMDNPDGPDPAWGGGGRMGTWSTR
Test: flow cytometry on cells; antibody purified from cell supernatant or ascites, compared with hybridoma supernatant

B1: CD19-6E1B8抗体 (anti-human CD19 monoclonal antibody, clone 6E1B8) (antibody, V domains shown)
VH: EVQLKESGPGLVAPSQSLSITCTVSGFSLTSHGVSWVRQPPGKGLEWLGVIWGDGRTSYHSALISRLSISKSDSKSQVFLKLNSLQTDDTATYYCAKKGAYYGSDYRYYAMDSWGQGTSVTVSS
VL: DIQLTQTPLSLPVSLGDQASISCRSSQSLVYSNGNTYLHWYLQKPGQSPKLLIYKASNRFSGVPDRFSGSGSGTDFTLKISRVEAEDLGVYFCSQSTHVPWTFGGGTKLEIKR
notes: It was purified on Protein G from ascites or from cell supernatant; also called CD19抗体; 抗CD19的单克隆抗体
  binding result: binds
